The values that follow come from patent US9266930.

Experiment [1] concerns the target HLA-A*1101 (purified HLA class I molecule) (human). The experiment is described as follows: competition with a 125I-labelled probe peptide for purified HLA-A*1101.
Experiment [2] deals with T1, HLA-DR5w12 (DRB1*1201) (human).
T1 chain 1: not shown
T1 chain 2: not shown

In experiment [3] the target is T2, HLA-DR7 (DRB1*0701) (human).
T2 chain 1: not shown
T2 chain 2: not shown

In experiment [4] the target is T3, HLA-DR8w2 (DRB1*0802) (human).
T3 chain 1: not shown
T3 chain 2: not shown

Experiment [5] concerns the target T4, HLA-DRw53 (DRB4*0101) (human).
T4 chain 1: not shown
T4 chain 2: not shown

The target in the next experiment is HLA-A*1101 (human). The experiment is described as follows: competition with 125I-labelled standard peptide for purified HLA, gel filtration. For orientation: In gel filtration, larger molecules generally elute earlier.
In experiment [6] the target is HLA-DR2w2β2 (DRB5*0101) (human).
Experiment [7] has as its target HLA-DR5w11 (DRB1*1101) (human).
The target in experiment [8] is HLA-DR4w15 (DRB1*0405) (human).
The target of experiment [9] is HLA-DR1 (DRB1*0101) (human).

B1: … (Pf SSP2 203, 9-mer) (peptide)
peptide: VGCHPSDGK
modifications: not checked
Consider B1, for which, in experiment [1], the binding affinity ratio (IC50 of standard peptide / IC50 of test peptide) is 0.0003.

B2: … (Pf SSP2 68) (peptide)
peptide: AVPLAMKLIQQLNLN
modifications: not checked
As for B2, the binding affinity ratio (IC50 of standard peptide / IC50 of test peptide) in [2] came out at 0.13; in [3], 0.077; in experiment [4] it was 0.04; in [5] it was 0.035.

B3: … (peptide)
peptide: WSPCSVTCGK
modifications: not checked
Turning to B3, the binding affinity ratio (IC50 of standard peptide / IC50 of test peptide) with HLA-A*1101 (human) was determined as 0.0002.

B4: … (Pf SSP2 235) (peptide)
peptide: CVEVEKTASCGVWDE
modifications: not checked
For B4, the binding affinity ratio (IC50 of standard peptide / IC50 of test peptide) in experiment [2] was determined as 0.0001; in [3] it was 0.0095; in experiment [4], 0.0005.

B5: … (P. falciparum EXP, position 51) (peptide)
peptide: HDLISDMIK
modifications: not checked
B5: in the experiment with HLA-A*0301 (human), the binding affinity ratio (IC50 of standard peptide / IC50 of test peptide) was determined as 0.0001.

B6: … (peptide)
peptide: MKILSVFFLALFFII
modifications: not checked
For the molecule B6, the values for the binding affinity ratio (IC50 of standard peptide / IC50 of test peptide) in experiment [6] and in [7] were -0.0021 and -0.001, respectively.

B7: … (P. falciparum EXP, position 51) (peptide)
peptide: HDLISDMIKK
modifications: not checked
For the molecule B7, the binding affinity ratio (IC50 of standard peptide / IC50 of test peptide) with HLA-A*0301 (human) was 0.0009.

B8: SSP2 50 … (peptide)
peptide: YLLMDCSGSI
modifications: not checked
With B8, the binding affinity ratio (IC50 of standard peptide / IC50 of test peptide) in the experiment with HLA-A*0201 (Human) was 0.17.

B9: … (Pf SSP2 7) (peptide)
peptide: VKYLVIVFLIFFDLF
modifications: not checked
B9: in experiment [3], the binding affinity ratio (IC50 of standard peptide / IC50 of test peptide) came out at 0.001.

B10: … (Pf SSP2 517) (peptide)
peptide: AGGLALLACAGLAYK
modifications: not checked
Consider B10, for which the binding affinity ratio (IC50 of standard peptide / IC50 of test peptide) was 0.0051 in experiment [2], 0.0009 in experiment [3], 0.0003 in [4] and -0.0005 in [5].

B11: … (Pf SSP2 139, 9-mer) (peptide)
peptide: QVRKHLNDR
modifications: not checked
Regarding B11, the binding affinity ratio (IC50 of standard peptide / IC50 of test peptide) in experiment [1] came out at 0.0002.

B12: … (Pf SSP2 513) (peptide)
peptide: AGGIAGGLALLACAG
modifications: not checked
Turning to B12, the binding affinity ratio (IC50 of standard peptide / IC50 of test peptide) was 0.0007 in [2], -0.0003 in experiment [3], 0.0004 in experiment [4] and -0.0005 in experiment [5].

B13: … (peptide)
peptide: KYLVIVFLIFFDLFL
modifications: not checked
For B13, the binding affinity ratio (IC50 of standard peptide / IC50 of test peptide) in experiment [6] was -0.002; in [8] it was -0.003; in experiment [7], -0.0009.

B14: … (P. falciparum EXP, position 27) (peptide)
peptide: KGTGSGVSSK
modifications: not checked
With B14, the binding affinity ratio (IC50 of standard peptide / IC50 of test peptide) with HLA-A*0301 (human) worked out at 0.0005.

B15: … (peptide)
peptide: VVILTDGIPDSIQDS
modifications: not checked
For B15, the figures for the binding affinity ratio (IC50 of standard peptide / IC50 of test peptide) in experiment [9], in experiment [6] and in experiment [7] were 0.0001, -0.0006 and -0.0004, respectively.

B16: … (Pf SSP2 120, 9-mer) (peptide)
peptide: SLLSTNLPY
modifications: not checked
On to B16, for which the binding affinity ratio (IC50 of standard peptide / IC50 of test peptide) in [1] turned out to be 0.0046.

B17: … (peptide)
peptide: AGGIAGGLALLACAG
modifications: not checked
With B17, the binding affinity ratio (IC50 of standard peptide / IC50 of test peptide) in experiment [7] was -0.0002.

B18: SSP2 11 … (peptide)
peptide: VIVFLIFFDL
modifications: not checked
Turning to B18, the binding affinity ratio (IC50 of standard peptide / IC50 of test peptide) in the experiment with HLA-A*0201 (Human) is 0.0038.

B19: … (peptide)
peptide: SIQDSLKESR
modifications: not checked
For B19, the binding affinity ratio (IC50 of standard peptide / IC50 of test peptide) with HLA-A*1101 (human) was found to be 0.0009.

B20: … (Pf SSP2 250, 10-mer) (peptide)
peptide: WSPCSVTCGK
modifications: not checked
B20: the binding affinity ratio (IC50 of standard peptide / IC50 of test peptide) in experiment [1] turned out to be 0.0002.

B21: … (Pf SSP2 58, 10-mer) (peptide)
peptide: SIRRHNWVNH
modifications: not checked
Regarding B21, in experiment [1], the binding affinity ratio (IC50 of standard peptide / IC50 of test peptide) turned out to be 0.0002.

B22: … (P. falciparum EXP, position 15) (peptide)
peptide: IFNKESLAEK
modifications: not checked
B22: the binding affinity ratio (IC50 of standard peptide / IC50 of test peptide) with HLA-A*0301 (human) worked out at 0.0005.

B23: … (P. falciparum EXP, position 32) (peptide)
peptide: GVSSKKKNKK
modifications: not checked
With B23, the binding affinity ratio (IC50 of standard peptide / IC50 of test peptide) with HLA-A*0301 (human) was 0.0011.

B24: … (peptide)
peptide: TVLLGGVGLVLYNTE
modifications: not checked
With B24, the binding affinity ratio (IC50 of standard peptide / IC50 of test peptide) was 0.49 in experiment [9], -0.0005 in experiment [6], -0.0009 in experiment [8] and -0.0002 in [7].

B25: … (Pf SSP2 15) (peptide)
peptide: LIFFDLFLVNGRDVQ
modifications: not checked
Turning to B25, the binding affinity ratio (IC50 of standard peptide / IC50 of test peptide) in experiment [3] was determined as 0.047.

B26: … (Pf SSP2 521, 9-mer) (peptide)
peptide: VVPGAATPY
modifications: not checked
For the molecule B26, the binding affinity ratio (IC50 of standard peptide / IC50 of test peptide) in experiment [1] was found to be 0.0002.

B27: … (Pf SSP2 215, 10-mer) (peptide)
peptide: YADSAWENVK
modifications: not checked
In the case of B27, the binding affinity ratio (IC50 of standard peptide / IC50 of test peptide) in experiment [1] turned out to be 0.0002.

B28: … (peptide)
peptide: AVPLAMKLIQQLNLN
modifications: not checked
For the molecule B28, the figures for the binding affinity ratio (IC50 of standard peptide / IC50 of test peptide) in experiment [6] and in [7] were -0.0006 and 0.0002, respectively.

B29: … (Pf SSP2 157) (peptide)
peptide: VVILTDGIPDSIQDS
modifications: not checked
For the molecule B29, the binding affinity ratio (IC50 of standard peptide / IC50 of test peptide) in [2] was 0.0001; in experiment [3] it was -0.0003; in experiment [4] it was -0.0003; in experiment [5], 0.0114.

B30: … (Pf SSP2 262, 9-mer) (peptide)
peptide: RSRKREILH
modifications: not checked
Consider B30, for which, in experiment [1], the binding affinity ratio (IC50 of standard peptide / IC50 of test peptide) was found to be 0.0002.

B31: … (P. falciparum EXP, position 32) (peptide)
peptide: GVSSKKKNK
modifications: not checked
Consider B31, for which, in the experiment with HLA-A*0301 (human), the binding affinity ratio (IC50 of standard peptide / IC50 of test peptide) came to 0.0001.

B32: … (peptide)
peptide: SVTCGKGTR
modifications: not checked
For B32, the binding affinity ratio (IC50 of standard peptide / IC50 of test peptide) in the experiment with HLA-A*1101 (human) is 0.0009.

B33: … (Pf SSP2 436, 10-mer) (peptide)
peptide: QSQDNNGNRH
modifications: not checked
Consider B33, for which, in experiment [1], the binding affinity ratio (IC50 of standard peptide / IC50 of test peptide) worked out at 0.0002.

B34: … (Pf SSP2 167, 10-mer) (peptide)
peptide: SIQDSLKESR
modifications: not checked
Turning to B34, the binding affinity ratio (IC50 of standard peptide / IC50 of test peptide) in experiment [1] came out at 0.0009.
